From US20230227838A1, “ENHANCED CELL SURVIVAL AGAINST BIOTIC AND ABIOTIC STRESSES THROUGH SALICYLICK ACID-INDUCED NPR1 CONDENSATES” (priority 2020, published 2023)

B1: LURP1, Protein of unknown function (DUF567) (protein, UniProt Q9ZQR8 1-207, looked up)
Protein LURP1: MQQPCVIVGSKYCSPNPVGLAIVRKVMKITDGNFVITSADGKLLFKVKDPLFSLHGKRILLDCSGAKVLTLRGKMMTMHDRWQVFRGGSTEEGALLYTVKRSSMIQLAPKLEVFLANNVEEKICDFKVKGAWLDDSCVVYAGDSDTIIAHMCGKQTMRGFFFGKDHFSVTVDKNVDYAFIASLIVILVEIEKAGFITKMTTQMIIGF
B2: AtHSBP, HSBP, heat shock factor binding protein (protein, UniProt Q8GW48 1-86, looked up)
Heat shock factor-binding protein: MDGHDSEDTKQSTADMTAFVQNLLQQMQTRFQTMSDSIITKIDDMGGRINELEQSINDLRAEMGVEGTPPPASKSGDEPKTPASSS
B3: PNG1, peptide-N-glycanase 1 (protein, UniProt Q9FGY9 1-721, looked up)
Peptide-N(4)-(N-acetyl-beta-glucosaminyl)asparagine amidase: MVARKFVVRHEDSSFDVDYNTEDGLEVLRFLIFSLTLVPPEEQKIVAEDDNRLVSDESDLASLSERLRLVSVGEDSVENSDAEMLKSDEELARMLQAEEDAIMFQQFVAARDNGEFEGRIRPYVSQVLMYEDPVRQDAARKTVPKDELEEKALVSLAKEGNFEPSKEERDYAFLLQLLFWFKKSFRWVNEPPCDFCGNKTIGQGMGNPLTSELAYGANRVEIYRCTMCPTTTRFPRYNDPLKLVETKKGRCGEWANCFTLYCRTFGYDSRLIMDFTDHVWTECYSHSLKRWIHLDPCEGVYDKPMLYEKGWNKKLNYVIAISKDGVCDVTKRYTKKWHEVLSRRTLTTESSLQDGLRTLTRERRRSLMFESLSKLELRDRNEQEELERNLHSADNASVSLPGRQSGDREWRIMRSEFGSDENSSVSSSSCPVRKCVDDHVTNIYDSFLPILTQFVEDGLPVARTNEVLKMIKQVLVDLKNAPYKTRKARLTLDSDNSSSFPEQFLPALGDLLLALSLKSERDTNGKSVTISVDGKLTKTAIALPVALDALRELVADLSKYQNLNKDSLSFPLVKQNRVCSGSVLASGEELPSGIATAAFDGIQESKWEEPNGAKGCWIVYKTLYNQMHQLIAYELMSANDAPERDPKDWILEGSNDGGSTWCVLDKQTSQVFEERFQRKSYKITTPGFQANLFRFRFLSVRDVNSTSRLQLGSIDLYRSHQ
B4: TAT3, tyrosine aminotransferase 3 (protein, UniProt Q9SK47 1-445, looked up)
Probable aminotransferase TAT3: MASNGVTNCNANANVWRFKGNGATSDAAAVTLRKLAFGMFKNCTMNSGKTILFPTPGEPSAHSNFRTCPEAEEAVAAAARSGMANSYAPSPGVFKARRAVAEYLNGELPTKLKAEDVYITGGCNQAIEIVIDSLAGNPSANILLPRPGYPHYDARAVYSGLEIRKYDLLPESDWEINLDGLEAAADENTVAMVIINPNNPCGNVYTYDHLNKVAEMARKLGIMIISDEVYDHVVYGDKPFIPMGKFASIAPVITLGSISKGWVNPGWRVGWIAMNDPNGIFVSTGVVQAIEDFLDLTPQPSFILQEALPDILEKTPKEFFEKKIKAMRRNVELSCERLKDIPCLFCPKKPESCSYLWLKLDTSMLNNIKNDFDFCTKLVSEESLILIPGVALGAENWVRISIGTDESVVQEIFDRLKGFYDRHAISKEAIKLSGHAINQIVVSVN
B5: UBC36, ubiquitin-conjugating enzyme 36 (protein, UniProt Q9FZ48 1-153, looked up)
Ubiquitin-conjugating enzyme E2 36: MANSNLPRRIIKETQRLLSEPAPGISASPSEENMRYFNVMILGPTQSPYEGGVFKLELFLPEEYPMAAPKVRFLTKIYHPNIDKLGRICLDILKDKWSPALQIRTVLLSIQALLSAPNPDDPLSENIAKHWKSNEAEAVETAKEWTRLYASGA
B6: ATCHR12, Homeotic gene regulator (protein, UniProt F4J9M5 1-1102, looked up)
Probable ATP-dependent DNA helicase CHR12: MVAQQLQERCGGTSQEDPVETTKSLICALNYISRDLPLPPHLFTAVSSIYHGASSSSLSDSDVSPPLPTSPPANKAPYGADLMGEFEDALLKQRPDCESGSRLIQLLDNRNKSHIQRRLSELEELPSTRGEDLQAKCLLELYGLKLRELQGKVRTAVSSEFWLRLNCADVSSQVFDWGMMRLPRPFYGVGDPFAMEADDQFRKKRDAERLSRLEEEEKNLIETAKRKFFAEVLNAVREFQLQIQATQKRRRQRNDGVQAWHGRQRQRATRAEKLRLMALKSDDQEAYMKLVKESKNERLTTLLEETNKLLANLGAAVQRQKDAKLPEGIDLLKDSESDLSELDAPRSEPLQDLLPDQDIDITESDNNDDSNDLLEGQRQYNSAIHSIQEKVTEQPSLLEGGELRSYQLEGLQWMVSLFNNNLNGILADEMGLGKTIQTISLIAYLLENKGVPGPYLIVAPKAVLPNWVNEFATWVPSIAAFLYDGRLEERKAIREKIAGEGKFNVLITHYDLIMRDKAFLKKIEWYYMIVDEGHRLKNHESALAKTLLTGYRIKRRLLLTGTPIQNSLQELWSLLNFLLPHIFNSVQNFEEWFNAPFADRGNVSLTDEEELLIIHRLHHVIRPFILRRKKDEVEKFLPGKTQVILKCDMSAWQKVYYKQVTDMGRVGLQTGSGKSKSLQNLTMQLRKCCNHPYLFVGGDYNMWKKPEIVRASGKFELLDRLLPKLRKAGHRILLFSQMTRLIDVLEIYLTLNDYKYLRLDGTTKTDQRGLLLKQFNEPDSPYFMFLLSTRAGGLGLNLQTADTVIIFDSDWNPQMDQQAEDRAHRIGQKKEVRVFVLVSVGSVEEVILERAKQKMGIDAKVIQAGLFNTTSTAQDRREMLEEIMRKGTSSLGTDVPSEREINRLAARSEDEFWMFERMDEERRRKENYRARLMQEQEVPEWAYTTQTQEEKLNNGKFHFGSVTGKRKRKEIVYSDTLSELQWLKAVESGEDLSKLSMRYNRREENASNTKTSTSKKVIESIQTVSDGTSEEDEEEQEEERAKEMSGKQRVDKSEEEEEEGEEENDGKAIFKWNTHKKKRSRYSFTCSSSDSRAQSSNGSRRK
B7: BSL2, BRI1 suppressor 1 (BSU1)-like 2 (protein, UniProt Q9SJF0 1-1018, looked up)
Serine/threonine-protein phosphatase BSL2: MDEDSSMVADNDQDREFQSLDGGQSPSPMERETPQQMNDQSPPPEGGSVPTPPPSDPNPATSQQQAAAVVGQEQQPALVVGPRCAPTYSVVDAMMDKKEDGPGPRCGHTLTAVPAVGDEGTPGYIGPRLVLFGGATALEGNSGGTGTPTSAGSAGIRLAGATADVHCYDVLSNKWTRLTPFGEPPTPRAAHVATAVGTMVVIQGGIGPAGLSAEDLHVLDLTQQRPRWHRVVVQGPGPGPRYGHVMALVGQRYLMAIGGNDGKRPLADVWALDTAAKPYEWRKLEPEGEGPPPCMYATASARSDGLLLLCGGRDANSVPLASAYGLAKHRDGRWEWAIAPGVSPSSRYQHAAVFVNARLHVSGGALGGGRMVEDSSSVAVLDTAAGVWCDTKSVVTSPRTGRYSADAAGGDASVELTRRCRHAAAAVGDLIFIYGGLRGGVLLDDLLVAEDLAAAETTYAASHAAAAAATNSPPGRLPGRYGFSDERNRELSESAADGAVVLGSPVAPPVNGDMHTDISPENALLPGTRRTNKGVEYLVEASAAEAEAISATLAAAKARQVNGEVELPDRDCGAEATPSGKPTFSLIKPDSMGSMSVTPAGIRLHHRAVVVAAETGGALGGMVRQLSIDQFENEGRRVSYGTPESATAARKLLDRQMSINSVPKKVIAHLLKPRGWKPPVRRQFFLDCNEIADLCDSAERIFASEPTVLQLKAPIKIFGDLHGQFGDLMRLFDEYGSPSTAGDISYIDYLFLGDYVDRGQHSLETISLLLALKVEYQHNVHLIRGNHEAADINALFGFRIECIERMGERDGIWVWHRINRLFNWLPLAASIEKKIICMHGGIGRSINHVEQIENIQRPITMEAGSIVLMDLLWSDPTENDSVEGLRPNARGPGLVTFGPDRVMEFCNNNDLQLIVRAHECVMDGFERFAQGHLITLFSATNYCGTANNAGAILVLGRDLVVVPKLIHPLPPALSSPETSPERHIEDTWMQELNANRPATPTRGRPQNSNDRGGSLAWM
B8: MEK1 (protein, UniProt Q94A06 1-354, looked up)
Mitogen-activated protein kinase kinase 1: MNRGSLCPNPICLPPLEQSISKFLTQSGTFKDGDLRVNKDGIQTVSLSEPGAPPPIEPLDNQLSLADLEVIKVIGKGSSGNVQLVKHKLTQQFFALKVIQLNTEESTCRAISQELRINLSSQCPYLVSCYQSFYHNGLVSIILEFMDGGSLADLLKKVGKVPENMLSAICKRVLRGLCYIHHERRIIHRDLKPSNLLINHRGEVKITDFGVSKILTSTSSLANSFVGTYPYMSPERISGSLYSNKSDIWSLGLVLLECATGKFPYTPPEHKKGWSSVYELVDAIVENPPPCAPSNLFSPEFCSFISQCVQKDPRDRKSAKELLEHKFVKMFEDSDTNLSAYFTDAGSLIPPLAN
B9: NIMIN1 (protein, UniProt Q9FNZ5 1-142, looked up)
Protein NIM1-INTERACTING 1: MYPKQFSLYNYSLETMSKDENVESKETIRVDKRVREDEEEEEEKKIDTFFKLIKHYQEARKRRREELAENSGVVRRKSNGGERSGIVVPAFQPEDFSQCRTGLKPPLMFVSDHKEENTKVEQEEDQTEERNEDKALDLNLAL
B10: ATMEK4, ATMKK4, MKK4, mitogen-activated protein kinase kinase 4 (protein, UniProt O80397 1-366, looked up)
Mitogen-activated protein kinase kinase 4: MRPIQSPPGVSVPVKSRPRRRPDLTLPLPQRDVSLAVPLPLPPTSGGSGGSSGSAPSSGGSASSTNTNSSIEAKNYSDLVRGNRIGSGAGGTVYKVIHRPSSRLYALKVIYGNHEETVRRQICREIEILRDVNHPNVVKCHEMFDQNGEIQVLLEFMDKGSLEGAHVWKEQQLADLSRQILSGLAYLHSRHIVHRDIKPSNLLINSAKNVKIADFGVSRILAQTMDPCNSSVGTIAYMSPERINTDLNQGKYDGYAGDIWSLGVSILEFYLGRFPFPVSRQGDWASLMCAICMSQPPEAPATASPEFRHFISCCLQREPGKRRSAMQLLQHPFILRASPSQNRSPQNLHQLLPPPRPLSSSSSPTT
B11: DMR1, HSK, homoserine kinase (protein, UniProt Q8L7R2 35-370, looked up)
Homoserine kinase: CRASVQTLVAVEPEPVFVSVKTFAPATVANLGPGFDFLGCAVDGLGDHVTLRVDPSVRAGEVSISEITGTTTKLSTNPLRNCAGIAAIATMKMLGIRSVGLSLDLHKGLPLGSGLGSSAASAAAAAVAVNEIFGRKLGSDQLVLAGLESEAKVSGYHADNIAPAIMGGFVLIRNYEPLDLKPLRFPSDKDLFFVLVSPDFEAPTKKMRAALPTEIPMVHHVWNSSQAAALVAAVLEGDAVMLGKALSSDKIVEPTRAPLIPGMEAVKKAALEAGAFGCTISGAGPTAVAVIDSEEKGQVIGEKMVEAFWKVGHLKSVASVKKLDNVGARLVNSVSR
B12: ELI3-2, elicitor-activated gene 3-2 (protein, UniProt Q02972 1-359, looked up)
Cinnamyl alcohol dehydrogenase 8: MGKVLQKEAFGLAAKDNSGVLSPFSFTRRETGEKDVRFKVLFCGICHSDLHMVKNEWGMSTYPLVPGHEIVGVVTEVGAKVTKFKTGEKVGVGCLVSSCGSCDSCTEGMENYCPKSIQTYGFPYYDNTITYGGYSDHMVCEEGFVIRIPDNLPLDAAAPLLCAGITVYSPMKYHGLDKPGMHIGVVGLGGLGHVGVKFAKAMGTKVTVISTSEKKRDEAINRLGADAFLVSRDPKQIKDAMGTMDGIIDTVSATHSLLPLLGLLKHKGKLVMVGAPEKPLELPVMPLIFERKMVMGSMIGGIKETQEMIDMAGKHNITADIELISADYVNTAMERLEKADVRYRFVIDVANTLKPNPNL
B13: DMR6, 2-oxoglutarate (2OG) and Fe(II)-dependent oxygenase superfamily protein (protein, UniProt Q9FLV0 1-341, looked up)
Protein DOWNY MILDEW RESISTANCE 6: MAAKLISTGFRHTTLPENYVRPISDRPRLSEVSQLEDFPLIDLSSTDRSFLIQQIHQACARFGFFQVINHGVNKQIIDEMVSVAREFFSMSMEEKMKLYSDDPTKTTRLSTSFNVKKEEVNNWRDYLRLHCYPIHKYVNEWPSNPPSFKEIVSKYSREVREVGFKIEELISESLGLEKDYMKKVLGEQGQHMAVNYYPPCPEPELTYGLPAHTDPNALTILLQDTTVCGLQILIDGQWFAVNPHPDAFVINIGDQLQALSNGVYKSVWHRAVTNTENPRLSVASFLCPADCAVMSPAKPLWEAEDDETKPVYKDFTYAEYYKKFWSRNLDQEHCLENFLNN

The binders below were run against sim3-GFP (Arabidopsis thaliana) (UniProt P93002) (assay: sim3-GFP IP, LC-MS/MS).
Chain of sim3-GFP (Arabidopsis thaliana) (P93002 other isoform, or with tags, fused parts or gaps): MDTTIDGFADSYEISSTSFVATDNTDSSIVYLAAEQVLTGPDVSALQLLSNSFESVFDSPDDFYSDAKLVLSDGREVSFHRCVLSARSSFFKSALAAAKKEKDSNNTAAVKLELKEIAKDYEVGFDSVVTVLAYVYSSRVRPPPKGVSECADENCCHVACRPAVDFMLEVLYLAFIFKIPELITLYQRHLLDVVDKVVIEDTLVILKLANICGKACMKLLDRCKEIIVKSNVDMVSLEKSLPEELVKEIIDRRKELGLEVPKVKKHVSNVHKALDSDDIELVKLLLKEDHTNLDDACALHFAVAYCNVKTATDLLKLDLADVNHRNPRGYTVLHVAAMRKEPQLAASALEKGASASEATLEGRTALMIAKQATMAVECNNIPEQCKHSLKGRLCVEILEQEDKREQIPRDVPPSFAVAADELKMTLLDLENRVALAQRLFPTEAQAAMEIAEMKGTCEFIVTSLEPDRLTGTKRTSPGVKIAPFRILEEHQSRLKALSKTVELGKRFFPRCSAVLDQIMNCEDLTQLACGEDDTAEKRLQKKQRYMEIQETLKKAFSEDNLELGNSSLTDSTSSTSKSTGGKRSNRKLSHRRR

Normalized Fold Change: SA vs Mock [fold] | Binder
4.63 | B1
6.22 | B2
3.13 | B3
18.5 | B4
3.95 | B5
9.34 | B6
2.07 | B7
4.03 | B8
17.7 | B9
2.62 | B10
2.16 | B11
57 | B12
15.6 | B13
